# Values quoted from earlier work as cited in paper PMC4961565.
# Molecular target: Asp309 (UniProt position 309, LIAAPDTMSVS)
# Test: other
substance,measurement,value
Cytochrome P450 19A1 (aromatase) (Homo sapiens),pKa,8.2
